Assay results: paper PMC11374688

How the values were obtained:
[1] = target: S. pombe Ubc4(C21S/C107S) (S. pombe) (UniProt P46595)
[2] = target: Ub(T): S. pombe Ub residues 1–74 extended with Gly–PSAN (Ub-PSAN), as cyanomethyldithioacetal in the complexes (S. pombe) (UniProt P0CG72)
Sequence of UniProt P0CG72 (P0CG72 1-74, one chain of several): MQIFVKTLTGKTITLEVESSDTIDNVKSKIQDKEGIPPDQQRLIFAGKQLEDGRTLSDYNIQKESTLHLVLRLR

Sequence of S. pombe Ubc4(C21S/C107S) (S. pombe) (P46595 whole entry C21S/C107S, the tested form may be a part): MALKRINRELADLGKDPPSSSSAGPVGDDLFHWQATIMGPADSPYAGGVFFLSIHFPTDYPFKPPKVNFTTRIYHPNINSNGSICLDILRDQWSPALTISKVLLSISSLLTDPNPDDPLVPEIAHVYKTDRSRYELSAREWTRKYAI

B1: S. pombe Pub2^HECT (295–671) F640A (domain or fragment)
chain: DEYQRKIAYMYDRPEMAVNDAQLQLKVSRATTFEDAYDIISKLSVSDMKKKLLIRFRNEDGLDYGGVSREFFYILSHAIFNPGYSLFEYATDDNYGLQISPLSSVNPDFRSYFRFVGRVMGLAIYHRRYLDVQFVLPFYKRILQKPLCLEDVKDVDEVYYESLKWIKNNDVDESLCLNFSVEENRFGESVTVDLIPNGRNIAVNNQNKMNYLKALTEHKLVTSTEEQFNALKGGLNELIPDSVLQIFNENELDTLLNGKRDIDVQDWKRFTDYRSYTETDDIVIWFWELLSEWSPEKKAKLLQFATGTSRLPLSGFKDMHGSDGPRKFTIEKVGHISQLPKAHTCANRLDIPPYNSKEELEQKLTIAIQETAGFGTE
- E2~Ub(T)-to-E3^HECT pulse–chase transthiolation, fold loss of activity against wild type [1]: 30 fold
- E2~Ub(T)-to-E3^HECT pulse–chase transthiolation, fold loss of activity against wild type [2]: 30 fold
